Read-outs that look alike come from different tables or passages of the source.
Assays:
[1] = molecular target: T1, purified human CD45 ectodomain (human CD45RABC antigen) (human, UniProt P08575 26-577); test: BLI (Octet Red96), IgG on anti-human Fc sensor, 50 nM CD45 ectodomain, 1:1 fit
T1 construct: also called hCD45
T1 sequence: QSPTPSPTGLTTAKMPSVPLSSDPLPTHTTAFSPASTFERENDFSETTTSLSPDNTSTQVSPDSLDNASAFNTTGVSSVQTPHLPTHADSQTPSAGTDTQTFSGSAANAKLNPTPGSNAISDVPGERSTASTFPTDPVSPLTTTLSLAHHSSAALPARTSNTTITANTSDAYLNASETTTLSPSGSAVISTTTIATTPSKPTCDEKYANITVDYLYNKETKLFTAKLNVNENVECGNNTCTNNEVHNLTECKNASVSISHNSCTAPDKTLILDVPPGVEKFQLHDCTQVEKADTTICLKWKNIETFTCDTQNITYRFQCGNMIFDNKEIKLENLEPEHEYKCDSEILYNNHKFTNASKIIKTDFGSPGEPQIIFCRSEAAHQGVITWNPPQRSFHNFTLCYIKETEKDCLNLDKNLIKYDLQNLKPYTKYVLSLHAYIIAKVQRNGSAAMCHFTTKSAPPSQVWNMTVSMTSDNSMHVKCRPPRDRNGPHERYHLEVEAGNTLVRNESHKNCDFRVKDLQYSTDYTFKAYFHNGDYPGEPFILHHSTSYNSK

[2] = molecular target: T2, human CD45 on live cells (REH-1 cells, primary human PBMCs) (human, UniProt P08575 26-1306); test: flow cytometry on human PBMCs, overnight 37 C, AF488 anti-human IgG
T2 construct: Endogenous CD45
T2 sequence: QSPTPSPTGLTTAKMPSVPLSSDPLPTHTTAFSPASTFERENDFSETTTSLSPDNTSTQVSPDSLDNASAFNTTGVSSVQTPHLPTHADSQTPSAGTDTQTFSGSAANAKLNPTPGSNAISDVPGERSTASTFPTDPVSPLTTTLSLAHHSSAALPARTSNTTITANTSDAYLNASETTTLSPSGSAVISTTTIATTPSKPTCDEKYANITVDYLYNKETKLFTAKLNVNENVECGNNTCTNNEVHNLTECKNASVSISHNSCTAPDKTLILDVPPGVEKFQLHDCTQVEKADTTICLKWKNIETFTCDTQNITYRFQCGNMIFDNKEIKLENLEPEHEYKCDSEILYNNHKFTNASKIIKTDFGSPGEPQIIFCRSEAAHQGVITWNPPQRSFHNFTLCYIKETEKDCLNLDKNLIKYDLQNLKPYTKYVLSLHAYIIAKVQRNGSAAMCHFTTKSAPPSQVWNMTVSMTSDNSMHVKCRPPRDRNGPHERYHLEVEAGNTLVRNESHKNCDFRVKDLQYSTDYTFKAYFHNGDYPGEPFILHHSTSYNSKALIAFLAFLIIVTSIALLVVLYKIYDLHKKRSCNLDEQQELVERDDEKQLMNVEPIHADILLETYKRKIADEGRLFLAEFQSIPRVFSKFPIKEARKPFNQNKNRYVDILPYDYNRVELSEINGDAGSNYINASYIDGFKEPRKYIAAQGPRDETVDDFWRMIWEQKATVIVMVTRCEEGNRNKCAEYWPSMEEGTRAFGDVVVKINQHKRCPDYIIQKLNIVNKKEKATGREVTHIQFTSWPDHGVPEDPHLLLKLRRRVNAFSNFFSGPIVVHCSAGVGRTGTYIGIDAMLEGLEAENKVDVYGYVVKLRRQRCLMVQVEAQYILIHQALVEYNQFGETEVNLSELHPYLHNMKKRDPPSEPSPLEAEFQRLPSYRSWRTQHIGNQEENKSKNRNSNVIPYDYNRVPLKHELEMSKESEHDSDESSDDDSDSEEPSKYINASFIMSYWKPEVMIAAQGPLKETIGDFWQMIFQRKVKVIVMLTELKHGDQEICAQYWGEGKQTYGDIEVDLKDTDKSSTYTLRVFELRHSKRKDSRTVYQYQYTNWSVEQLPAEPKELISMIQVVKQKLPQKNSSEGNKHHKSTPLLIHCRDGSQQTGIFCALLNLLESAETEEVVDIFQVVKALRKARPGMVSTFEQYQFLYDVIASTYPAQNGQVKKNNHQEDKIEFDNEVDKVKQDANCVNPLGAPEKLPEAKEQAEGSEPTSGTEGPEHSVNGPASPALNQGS

[3] = molecular target: T3, cynomolgus CD45 on live cells (primary cynomolgus PBMCs) (cynomolgus monkey); test: flow cytometry on cynomolgus PBMCs, overnight 37 C, AF488 anti-human IgG
T3 construct: Endogenous CD45 on PBMCs; also called cyno CD45; Cyno PBMC
T3 chain: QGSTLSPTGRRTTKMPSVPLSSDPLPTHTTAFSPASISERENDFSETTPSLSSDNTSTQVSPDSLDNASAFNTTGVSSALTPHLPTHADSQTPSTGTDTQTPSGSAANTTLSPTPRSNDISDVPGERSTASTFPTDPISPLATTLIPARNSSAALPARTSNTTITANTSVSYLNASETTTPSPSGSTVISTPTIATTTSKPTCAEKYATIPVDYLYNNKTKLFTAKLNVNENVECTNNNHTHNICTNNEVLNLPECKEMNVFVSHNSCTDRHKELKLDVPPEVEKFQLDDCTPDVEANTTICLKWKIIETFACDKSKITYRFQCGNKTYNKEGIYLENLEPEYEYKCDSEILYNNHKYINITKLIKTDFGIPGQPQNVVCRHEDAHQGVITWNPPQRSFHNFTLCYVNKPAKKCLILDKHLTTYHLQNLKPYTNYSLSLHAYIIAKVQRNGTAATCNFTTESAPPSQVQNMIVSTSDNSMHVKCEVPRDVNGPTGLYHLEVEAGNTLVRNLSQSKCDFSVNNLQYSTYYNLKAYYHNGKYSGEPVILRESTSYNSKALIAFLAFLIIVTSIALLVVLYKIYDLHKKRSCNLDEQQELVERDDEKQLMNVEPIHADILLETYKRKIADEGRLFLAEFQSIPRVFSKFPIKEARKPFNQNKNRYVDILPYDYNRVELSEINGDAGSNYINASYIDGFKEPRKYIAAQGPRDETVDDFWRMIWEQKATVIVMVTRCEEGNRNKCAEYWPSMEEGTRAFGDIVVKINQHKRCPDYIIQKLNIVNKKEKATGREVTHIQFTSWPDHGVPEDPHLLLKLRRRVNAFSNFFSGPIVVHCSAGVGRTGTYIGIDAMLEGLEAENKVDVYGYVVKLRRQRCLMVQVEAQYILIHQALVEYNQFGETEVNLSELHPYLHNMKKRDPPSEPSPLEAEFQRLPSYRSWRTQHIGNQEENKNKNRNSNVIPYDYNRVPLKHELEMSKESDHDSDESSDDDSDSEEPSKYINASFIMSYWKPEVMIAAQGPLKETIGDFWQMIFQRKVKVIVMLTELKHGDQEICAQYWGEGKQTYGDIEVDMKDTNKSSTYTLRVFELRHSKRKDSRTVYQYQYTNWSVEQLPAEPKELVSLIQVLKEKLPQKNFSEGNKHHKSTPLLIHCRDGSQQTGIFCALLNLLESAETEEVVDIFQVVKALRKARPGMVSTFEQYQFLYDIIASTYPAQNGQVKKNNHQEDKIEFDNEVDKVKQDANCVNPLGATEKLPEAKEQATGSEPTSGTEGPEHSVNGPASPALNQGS

[4] = molecular target: T3, cynomolgus CD45 on live cells (primary …); test: flow cytometry on PBMCs; cyno EC50 against human EC50
[5] = molecular target: T1, purified human CD45 ectodomain (human …); test: BLI (Octet Red96), antibody on anti-human Fc sensor, 100 nM human CD45 ectodomain, 1:1 fit
[6] = molecular target: T2, human CD45 on live cells (REH-1 cells, …); test: flow cytometry on human PBMCs, overnight 37 C, AF488 anti-human IgG; remark: listed apart in the source
[7] = molecular target: T3, cynomolgus CD45 on live cells (primary …); test: flow cytometry on cynomolgus PBMCs, overnight 37 C, AF488 anti-human IgG
[8] = molecular target: T3, cynomolgus CD45 on live cells (primary …); test: flow cytometry on PBMCs; cyno EC50 against human EC50

Binder	Kd [1] [pM]	koff [1] [s⁻¹]	kon [1] [M⁻¹ s⁻¹]	further results
Antibody 4 (Ab4) (antibody, V domains shown) VH: EVQLVESGGGLVQPGGSLRLSCAASGFTFEAYSMNWVRQAPGKGLEWVSYISLSGATIHYADSVKGRFTISRDNAKNSLYLQMNSLRAEDTAVYYCARGGQYYYTSSDYGEVAFDIWGQGTMVTVSS VL: DIVMTQSPLSLPVTPGEPASISCRSSQSLVSNGYNYLDWYLQKPGQSPQLLIYFGSSRASGVPDRFSGSGSGTDFTLKISRVEAEDVGVYYCMQRRRTPWSFGGGTKVEIK	13.9	3.28e-06	236000	
Antibody 3 (Ab3) (antibody, V domains shown) VH: QVQLVESGGGLVKPGGSLRLSCAASGFTFGGYSMNWVRQAPGKGLEWVSYISISGATITYADSVKGRFTISRDNAKNSLYLQMNSLRAEDTAVYYCARGGQYYYDSSDYGEVAFDIWGQGTMVTVSS VL: DIVMTQSPLSLPVTPGEPASISCRSSQSLVSNGYNYLDWYLQKPGQSPQLLIYFGSSRASGVPDRFSGSGSGTDFTLKISRVEAEDVGVYYCMQRRRTPPFTFGGGTKVEIK	866	0.000225	260000	
Antibody 5 (Ab5) (antibody, V domains shown, Human IgG: Ab4 with the Asn to Ser substitution in CDR-L1) VH: EVQLVESGGGLVQPGGSLRLSCAASGFTFEAYSMNWVRQAPGKGLEWVSYISLSGATIHYADSVKGRFTISRDNAKNSLYLQMNSLRAEDTAVYYCARGGQYYYTSSDYGEVAFDIWGQGTMVTVSS VL: DIVMTQSPLSLPVTPGEPASISCRSSQSLVSSGYNYLDWYLQKPGQSPQLLIYFGSSRASGVPDRFSGSGSGTDFTLKISRVEAEDVGVYYCMQRRRTPWSFGGGTKVEIK	144	3.36e-05	233000	
Antibody 7 (Ab7) (antibody, V domains shown, Human IgG: Ab3 with the Asn to Ser substitution in CDR-L1) VH: QVQLVESGGGLVKPGGSLRLSCAASGFTFGGYSMNWVRQAPGKGLEWVSYISISGATITYADSVKGRFTISRDNAKNSLYLQMNSLRAEDTAVYYCARGGQYYYDSSDYGEVAFDIWGQGTMVTVSS VL: DIVMTQSPLSLPVTPGEPASISCRSSQSLVSSGYNYLDWYLQKPGQSPQLLIYFGSSRASGVPDRFSGSGSGTDFTLKISRVEAEDVGVYYCMQRRRTPPFTFGGGTKVEIK	2330	0.000615	264000	
Antibody 2 (Ab2) (antibody, V domains shown) VH: EVQLVESGGGLVQPGGSLRLSCAASGFTFEAYSMNWVRQAPGKGLEWVSYISLSGATIHYADSVKGRFTISRDNAKNSLYLQMNSLRAEDTAVYYCARGGQYYYDSSDYGEVAFDIWGQGTMVTVSS VL: DIVMTQSPLSLPVTPGEPASISCRSSQSLVSNGYNYLDWYLQKPGQSPQLLIYFGSSRASGVPDRFSGSGSGTDFTLKISRVEAEDVGVYYCMQRRRTPWSFGGGTKVEIK	115	2.8e-05	245000	
Antibody 6 (Ab6) (antibody, V domains shown) VH: EVQLVESGGGLVQPGGSLRLSCAASGFTFEAYSMNWVRQAPGKGLEWVSYISLSGATIHYADSVKGRFTISRDNAKNSLYLQMNSLRAEDTAVYYCARGGQYYYTSSDYGEVAFDIWGQGTLVTVSS VL: DIVLTQSPLSLPVTPGEPASISCRSSQSLVSSGYNYLDWYLQKPGQSPQLLIYFGSSRASGVPDRFSGSGSGTDFTLKISRVEAEDVGVYYCMQRRRTPWSFGGGTKVEIK	71.6	1.73e-05	242000	
Antibody A (AbA) (antibody, V domains shown, also called humanized clone AbA) VH: EVQLLESGGGLVQPGGSLRLSCAASGFTFNNYWMTWVRQAPGKGLEWVSSISSSGGSIYYPDRVKGRFTISRDNSKNTLYLQMNSLRAEDTAVYYCARDERWAGAMDAWGQGTTVTVSS VL: DIQMTQSPSSLSASVGDRVTITCKASQNINKNLDWYQQKPGKAPKLLIYETNNLQTGVPSRFSGSGSGTDFTLTISSLQPEDFATYYCYQHNSRFTFGQGTKLEIK				EC50 [2]: 780 pM; EC50 [3]: 1250 pM; Fold Cyno vs Human (EC50) [4]: 2.2 fold; Kd [5]: 3600 pM; koff [5]: 0.000181 s⁻¹; kon [5]: 50300 M⁻¹ s⁻¹; EC50 [6]: 580 pM; EC50 [7]: 1370 pM; Fold Cyno v/s Human (EC50) [8]: 1.8 fold
